Measurements reported in patent publication US20240343831A1 (Regeneron, published 2024).

How the values were obtained:
[1] = biological target: Macaca fascicularis TMPRSS2-MMH (Macaca fascicularis); experiment: SPR Biacore T200, 37 C, t½ at pH 7.4 over t½ at pH 6.0
[2] = biological target: T1, ectodomain of human TMPRSS2-myc-myc-His (human, UniProt O15393 106-492); experiment: as above
T1 construct: extracellular domain; also called hTMPRSS2-MMH; human TMPRSS2-MMH
Protocol: (§1) Dissociation rate constant (kd) for TMPRSS2 binding to purified anti-TMPRSS2 monoclonal antibody was determined using a real-time surface plasmon resonance based Biacore T200 biosensor platform. […] The CM5 Biacore sensor surface derivatized by amine coupling with an anti-human Fc specific mouse mAb was used to capture different anti-TMPRSS2 mAbs. All the TMPRSS2 reagents were expressed with a C-terminal myc-myc-hexahistidine tag (subsequently referred to as TMPRSS2-MMH).
(§2) Dissociation rate constants (kd) in two running buffers were determined by fitting the real-time binding sensorgrams to a 1:1 binding model using Scrubber 2.0c curve-fitting software.

[3] = biological target: Macaca fascicularis TMPRSS2-MMH (Macaca fascicularis); experiment: SPR Biacore T200, mAb captured by anti-human Fc, 25 C, HBS-P pH 7.4
[4] = biological target: Macaca fascicularis TMPRSS2-MMH (Macaca fascicularis); experiment: SPR Biacore T200, mAb captured by anti-human Fc, 37 C, HBS-P pH 7.4
[5] = biological target: T1, ectodomain of human TMPRSS2-myc-myc-His; experiment: SPR Biacore T200, mAb captured by anti-human Fc, 25 C, HBS-P pH 7.4
Protocol: (§3) The equilibrium dissociation constant (KD) for TMPRSS2 binding to different TMPRSS2 monoclonal antibodies (mAbs) was determined with a real-time surface plasmon resonance biosensor using a Biacore T200 instrument. All binding studies were performed in 10 mM HEPES, 150 mM NaCl, and 0.05% v/v Surfactant Tween-20, pH 7.4 (HBS-P) running buffer at 25° C. and 37° C. […] At the end of each cycle, the TMPRSS2 mAb captured surface was regenerated using a 12 sec injection of 20 mM phosphoric acid.
(§4) The association rate (kₐ) and dissociation rate (kd) were determined by fitting the real-time binding sensorgrams to a 1:1 binding model with mass transport limitation using Scrubber 2.0c curve-fitting software. Binding dissociation equilibrium constant (KD) and dissociative half-life (t½) were calculated from the kinetic rates as:

[6] = biological target: T1, ectodomain of human TMPRSS2-myc-myc-His; experiment: SPR Biacore T200, mAb captured by anti-human Fc, 37 C, HBS-P pH 7.4
Protocol: as §3, §4

[7] = biological target: Macaca fascicularis TMPRSS2-MMH (Macaca fascicularis); experiment: SPR Biacore T200, mAb captured by anti-human Fc, 37 C, dissociation in PBS-T pH 6.0
[8] = biological target: Macaca fascicularis TMPRSS2-MMH (Macaca fascicularis); experiment: SPR Biacore T200, mAb captured by anti-human Fc, 37 C, dissociation in PBS-T pH 7.4
[9] = biological target: T1, ectodomain of human TMPRSS2-myc-myc-His; experiment: SPR Biacore T200, mAb captured by anti-human Fc, 37 C, dissociation in PBS-T pH 6.0
Protocol: as §1, §2

[10] = biological target: T1, ectodomain of human TMPRSS2-myc-myc-His; experiment: SPR Biacore T200, mAb captured by anti-human Fc, 37 C, dissociation in PBS-T pH 7.4
Protocol: as §1, §2

mouse TMPRSS2-MMH [11] = biological target: T2, mouse TMPRSS2-MMH (mouse, UniProt Q9JIQ8 105-490); experiment: SPR Biacore T200, 37 C, t½ at pH 7.4 over t½ at pH 6.0
T2 construct: extracellular domain; also called mTMPRSS2-MMH
Protocol: as §1, §2

mouse TMPRSS2-MMH [12] = biological target: T2, mouse TMPRSS2-MMH; experiment: SPR Biacore T200, mAb captured by anti-human Fc, 25 C, HBS-P pH 7.4
Protocol: as §3, §4

mouse TMPRSS2-MMH [13] = biological target: T2, mouse TMPRSS2-MMH; experiment: SPR Biacore T200, mAb captured by anti-human Fc, 37 C, HBS-P pH 7.4
Protocol: as §3, §4

mouse TMPRSS2-MMH [14] = biological target: T2, mouse TMPRSS2-MMH; experiment: SPR Biacore T200, mAb captured by anti-human Fc, 37 C, dissociation in PBS-T pH 6.0
Protocol: as §1, §2

mouse TMPRSS2-MMH [15] = biological target: T2, mouse TMPRSS2-MMH; experiment: SPR Biacore T200, mAb captured by anti-human Fc, 37 C, dissociation in PBS-T pH 7.4
Protocol: as §1, §2

T1 sequence (O15393 106-492): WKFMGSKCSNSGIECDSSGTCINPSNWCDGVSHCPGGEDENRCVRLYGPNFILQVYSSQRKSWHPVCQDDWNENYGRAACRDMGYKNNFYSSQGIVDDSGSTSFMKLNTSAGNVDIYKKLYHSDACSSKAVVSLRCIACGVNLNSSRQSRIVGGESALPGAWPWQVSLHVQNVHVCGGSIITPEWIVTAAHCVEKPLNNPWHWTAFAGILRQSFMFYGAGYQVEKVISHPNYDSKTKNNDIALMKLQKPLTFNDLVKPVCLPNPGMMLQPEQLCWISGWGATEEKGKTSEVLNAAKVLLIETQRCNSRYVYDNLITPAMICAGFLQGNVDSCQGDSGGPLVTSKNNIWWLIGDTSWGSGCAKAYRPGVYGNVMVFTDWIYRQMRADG
T2 sequence (Q9JIQ8 105-490): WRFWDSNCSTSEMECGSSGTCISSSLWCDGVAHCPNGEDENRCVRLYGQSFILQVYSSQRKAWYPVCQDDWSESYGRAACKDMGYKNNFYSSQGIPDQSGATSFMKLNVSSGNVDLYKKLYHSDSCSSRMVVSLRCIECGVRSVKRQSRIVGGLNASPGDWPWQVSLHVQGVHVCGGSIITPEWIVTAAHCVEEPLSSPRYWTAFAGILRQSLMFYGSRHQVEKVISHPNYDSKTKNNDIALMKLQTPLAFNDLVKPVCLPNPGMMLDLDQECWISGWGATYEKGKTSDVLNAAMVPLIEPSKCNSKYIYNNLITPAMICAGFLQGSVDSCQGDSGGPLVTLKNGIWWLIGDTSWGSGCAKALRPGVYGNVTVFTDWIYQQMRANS

B1: mAb8021 (antibody, human IgG4 S228P, kappa, V domains shown)
VH: QVQLVQSGAEVKKPGASVRVSCKASGYTFTNYGITWVRQAPGQGLEWMGGISVYNGNTEYAEKFQGRVSMTTDTSTTTAYLELRSLKSDDTAVYFCARGQLDYFDPWGQGTLVTVSS
VL: EIVMTQSPATLSVSPGERATLSCRASQSVRSNLAWYQQKPGQAPSLLIYGASTRATGIPARFSGSGSGTEFTLTISSLQSEDFAVYFCLQYNNWWTFGQGTKVEIKR
notes: also called anti-TMPRSS2 mAb
t½ Ratio (pH 7.4/pH 6.0) [1]: 0.9 | t½ Ratio (pH 7.4/pH 6.0) [2]: 0.7 | 100 nM mfTMPRSS2-MMH Bound (RU) [3]: 63.4 RU | Kd [3]: 25.2 pM | koff [3]: 0.000113 s⁻¹ | kon [3]: 4.48e+06 M⁻¹ s⁻¹ | t½ [3]: 102 min | 100 nM mfMPRSS2-MMH Bound (RU) [4]: 36.7 RU | Kd [4]: 14.1 pM | koff [4]: 0.000109 s⁻¹ | kon [4]: 7.71e+06 M⁻¹ s⁻¹ | t½ [4]: 106 min | Kd [5]: 29.9 pM | koff [5]: 9.19e-05 s⁻¹ | kon [5]: 3.08e+06 M⁻¹ s⁻¹ | t½ [5]: 126 min | Kd [6]: 62.7 pM | koff [6]: 0.000261 s⁻¹ | kon [6]: 4.17e+06 M⁻¹ s⁻¹ | t½ [6]: 44.2 min | 100 nm Ag Bound (RU) [7]: 70 RU | koff [7]: 0.000111 s⁻¹ | t½ [7]: 104 min | 100 nm Ag Bound (RU) [8]: 71 RU | koff [8]: 0.000127 s⁻¹ | t½ [8]: 91 min | koff [9]: 0.000129 s⁻¹ | t½ [9]: 90 min | koff [10]: 0.000192 s⁻¹ | t½ [10]: 60 min

B2: mAb8029 (antibody, human IgG4 S228P, kappa, V domains shown)
VH: QLQLQESGPGLVKPSETLSLTCTVSGGSINSNSYYWGWIRQPPGKGLEWIGSIYYDRNTYYTPSLKSRVTISVDTSKNQFSLKLTSVTAADTAVYYCAREQVPGYYGMDVWGQGTTVTVSS
VL: DIQLTQSPSFLSASVGDRVTITCWASQGISRYLAWYQQKPGKTPKLLIYAASTLQSGVPSRFSGTGSGTDFTLTISNLQPEDFATYYCQQFDSYPWTFGQGTKVEIKR
notes: also called anti-TMPRSS2 mAb
t½ Ratio (pH 7.4/pH 6.0) [1]: 0.8 | t½ Ratio (pH 7.4/pH 6.0) [2]: 1 | t½ Ratio (pH 7.4/pH 6.0) (mouse TMPRSS2-MMH [11]): 1 | 100 nM mfTMPRSS2-MMH Bound (RU) [3]: 66.7 RU | Kd [3]: 60.9 pM | koff [3]: 0.000196 s⁻¹ | kon [3]: 3.2e+06 M⁻¹ s⁻¹ | t½ [3]: 59.1 min | 100 nM mfMPRSS2-MMH Bound (RU) [4]: 35.3 RU | Kd [4]: 75.8 pM | koff [4]: 0.000392 s⁻¹ | kon [4]: 5.17e+06 M⁻¹ s⁻¹ | t½ [4]: 29.5 min | Kd [5]: 59.2 pM | koff [5]: 0.000129 s⁻¹ | kon [5]: 2.18e+06 M⁻¹ s⁻¹ | t½ [5]: 89.5 min | Kd [6]: 216 pM | koff [6]: 0.000673 s⁻¹ | kon [6]: 3.12e+06 M⁻¹ s⁻¹ | t½ [6]: 17.2 min | Kd (mouse TMPRSS2-MMH [12]): 3330 pM | koff (mouse TMPRSS2-MMH [12]): 0.000442 s⁻¹ | kon (mouse TMPRSS2-MMH [12]): 133000 M⁻¹ s⁻¹ | t½ (mouse TMPRSS2-MMH [12]): 26.2 min | Kd (mouse TMPRSS2-MMH [13]): 9750 pM | koff (mouse TMPRSS2-MMH [13]): 0.00209 s⁻¹ | kon (mouse TMPRSS2-MMH [13]): 214000 M⁻¹ s⁻¹ | t½ (mouse TMPRSS2-MMH [13]): 5.5 min | 100 nm Ag Bound (RU) [7]: 94 RU | koff [7]: 0.000339 s⁻¹ | t½ [7]: 34 min | 100 nm Ag Bound (RU) [8]: 90 RU | koff [8]: 0.000408 s⁻¹ | t½ [8]: 28 min | koff [9]: 0.000615 s⁻¹ | t½ [9]: 19 min | koff [10]: 0.000624 s⁻¹ | t½ [10]: 19 min | koff (mouse TMPRSS2-MMH [14]): 0.00257 s⁻¹ | t½ (mouse TMPRSS2-MMH [14]): 4 min | koff (mouse TMPRSS2-MMH [15]): 0.00246 s⁻¹ | t½ (mouse TMPRSS2-MMH [15]): 5 min
